This test concerns the target …-HLA-A2 complex (human). The test can be described thus: SPR BIAcore T200, single-cycle kinetics, pMHC on chip.

B1: single chain TCR s-10 (TCR)
chain: SQQGEEDPQALSIQEGENVTINCSYKGWAQNRQNSGRGLVHLILIRSNEREKHSGRLRVTLDTSKKSSSLEITAVRPADTASYFCATDANARWDFGKGTRLHILPGGGSEGGGSEGGGSEGGGSEGGTGDAGVTQSPRHESVEMGQEVTLRCKPISGHDYLFWYRQTPKRGLELLIYFNHGAVIDDSGMPEDRFSAKMPNASFSTLKIQPVEPRDSAVYFCASQLGSNEQYFGPGTRLTVT
B1 showed a Kd of 0.425 nM.

One may read the Kd as the free concentration of one partner at which half of the binding sites on the other are occupied at equilibrium, for simple one-to-one binding. Read a high Kd as a looser complex.
